Data reported in article PMC4096120 (Science signaling, 2013).

Biological target: eGFP-DGKζ (fusion of enhanced green fluorescent protein and diacylglycerol kinase ζ) (UniProt Q80UP3 1-929)
Assay: co-IP

eGFP-DGKζ (fusion of enhanced green fluorescent protein and diacylglycerol kinase ζ), sequence (Q80UP3 whole entry, the tested form may be a part): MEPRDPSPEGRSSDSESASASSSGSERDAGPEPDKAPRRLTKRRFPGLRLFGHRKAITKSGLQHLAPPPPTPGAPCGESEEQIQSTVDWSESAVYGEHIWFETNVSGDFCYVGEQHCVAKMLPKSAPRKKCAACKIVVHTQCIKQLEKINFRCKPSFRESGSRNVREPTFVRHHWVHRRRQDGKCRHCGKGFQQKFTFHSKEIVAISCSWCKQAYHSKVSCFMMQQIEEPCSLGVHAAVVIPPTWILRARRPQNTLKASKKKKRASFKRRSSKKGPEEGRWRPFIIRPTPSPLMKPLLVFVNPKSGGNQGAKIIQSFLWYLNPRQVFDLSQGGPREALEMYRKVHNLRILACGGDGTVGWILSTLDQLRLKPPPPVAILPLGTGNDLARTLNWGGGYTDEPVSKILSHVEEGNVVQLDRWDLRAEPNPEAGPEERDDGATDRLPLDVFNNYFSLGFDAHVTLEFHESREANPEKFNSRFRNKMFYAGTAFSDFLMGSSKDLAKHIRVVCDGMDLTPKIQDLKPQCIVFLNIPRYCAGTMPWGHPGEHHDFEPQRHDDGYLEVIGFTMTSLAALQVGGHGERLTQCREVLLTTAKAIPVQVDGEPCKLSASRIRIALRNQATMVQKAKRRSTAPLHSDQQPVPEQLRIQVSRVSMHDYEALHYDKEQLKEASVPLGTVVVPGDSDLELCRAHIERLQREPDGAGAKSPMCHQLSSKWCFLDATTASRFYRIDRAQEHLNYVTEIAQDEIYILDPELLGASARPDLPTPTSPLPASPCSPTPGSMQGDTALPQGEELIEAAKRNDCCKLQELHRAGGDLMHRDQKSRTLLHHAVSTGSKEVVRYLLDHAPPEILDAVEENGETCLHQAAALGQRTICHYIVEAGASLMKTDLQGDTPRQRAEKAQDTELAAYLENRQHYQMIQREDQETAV

- fold binding relative to DGKα: ≤ 3 fold
B1: RasGRP1 (Ras guanyl nucleotide-releasing protein 1), from pEF6-huRasGRP1-myc/His wild-type plasmid (natural protein, human, UniProt O95267 1-797, looked up)
chain: MGTLGKAREAPRKPSHGCRAASKARLEAKPANSPFPSHPSLAHITQFRMMVSLGHLAKGASLDDLIDSCIQSFDADGNLCRSNQLLQVMLTMHRIVISSAELLQKVITLYKDALAKNSPGLCLKICYFVRYWITEFWVMFKMDASLTDTMEEFQELVKAKGEELHCRLIDTTQINARDWSRKLTQRIKSNTSKKRKVSLLFDHLEPEELSEHLTYLEFKSFRRISFSDYQNYLVNSCVKENPTMERSIALCNGISQWVQLMVLSRPTPQLRAEVFIKFIQVAQKLHQLQNFNTLMAVIGGLCHSSISRLKETSSHVPHEINKVLGEMTELLSSSRNYDNYRRAYGECTDFKIPILGVHLKDLISLYEAMPDYLEDGKVNVHKLLALYNHISELVQLQEVAPPLEANKDLVHLLTLSLDLYYTEDEIYELSYAREPRNHRAPPLTPSKPPVVVDWASGVSPKPDPKTISKHVQRMVDSVFKNYDHDQDGYISQEEFEKIAASFPFSFCVMDKDREGLISRDEITAYFMRASSIYSKLGLGFPHNFQETTYLKPTFCDNCAGFLWGVIKQGYRCKDCGMNCHKQCKDLVVFECKKRAKNPVAPTENNTSVGPVSNLCSLGAKDLLHAPEEGPFTFPNGEAVEHGEESKDRTIMLMGVSSQKISLRLKRAVAHKATQTESQPWIGSEGPSGPFVLSSPRKTAQDTLYVLPSPTSPCPSPVLVRKRAFVKWENKDSLIKSKEELRHLRLPTYQELEQEINTLKADNDALKIQLKYAQKKIESLQLEKSNHVLAQMEQGDCS
